Data on one molecule can be found in article PMC8358021, “Structural basis of the complementary activity of two ketosynthases in aryl polyene biosynthesis” (Scientific Reports, 2021).

The target of assay [1] is T1, AbApeO-AbApeC heterodimer (ketosynthase-chain length factor complex of the aryl polyene biosynthesis gene … (Acinetobacter baumannii)).
T1 construct: ApeO, ketosynthase of the APE biosynthesis gene cluster, Acinetobacter baumannii (pathogenic strain, global clone 2); ApeC, chain length factor of the APE biosynthesis gene cluster, Acinetobacter baumannii (pathogenic strain, global clone 2); The His6 tag on AbApeO is said to be not cleavable; The complex was formed by co-expression and used as one molecule in ITC; also called ApeO-ApeC; …
As to the kind of experiment: ITC; 2.0 mM holo ACP1 or holo ACP2 injected (19 injections of 3 µl) into 0.1 mM AbApeO-AbApeC or AbApeR; 25 °C; 40 mM potassium phosphate pH 7.0; 2 mM 2-mercaptoethanol. To be noted: both partners purified. In general terms: Isothermal titration calorimetry measures the heat released or taken up as one component is titrated into another.

The target of assay [2] is T2, AbApeR (FabB-like homodimeric ketosynthase of the A. baumannii APE gene cluster) (Acinetobacter baumannii).
T2 construct: ApeR, ketoacyl-ACP synthase I (FabB)-like ketosynthase of the APE biosynthesis gene cluster, Acinetobacter baumannii (pathogenic strain, global clone 2); not shown: His6, N-terminal, cleaved
Described as above. To be noted: both partners purified.

B1: holo ACP2 (ApeF), acyl carrier protein 2 of the A. baumannii APE gene cluster (natural protein)
chain: MSNLADELKQMIIDVLALEDITIADIDTEAPLFGEGLGLDSIDALELGLALKKRYNIHLNAESDETKQHFKSIQSLVALVEAQQKS
modifications: 4'-phosphopantetheine (holo form)
With B1, in assay [1], the stoichiometry N – broadly, a count of units in the complex or per binding partner – is 1.21. In addition, in assay [2], the dissociation constant Kd – broadly, the constant that tells how readily two partners part at equilibrium – is 41 µM and the “stoichiometry N” value amounted to 0.71.
